This is an account of results in publication PMC11948038, “Evolutionary Pro‐To‐Thr Mutation in the Intrinsically Disordered Domain of ANP32 Family Members Modulates Their Target Binding Modes” (Advanced Science, 2025).

For test [1], the target named is T1, cytochrome c (Homo sapiens, UniProt P99999).
T1 construct: obtained by immunizing male rabbits with full-length recombinant Cc; made in house; host or cells: E. coli BL21 (DE3)
Conditions: Cc-ANP32B, low ionic strength; ref [31]; cited from earlier work. The source says: Although both ANP32A and ANP32B interact with Cc via their C‐terminal region, there are remarkable differences in the thermodynamic parameters and binding surfaces between full‐length ANP32A and ANP32B in complex with Cc (Figure 3C,F).^[ [31] ^] […] These di ...

In a further test the test system is histone H3. In words: Coimmunoprecipitation of c-myc-ANP32A/B with histone H3. The format is binding. Conditions: anti-c-myc, Western blot; representative of three experiments. The procedure:
HEK293T cells were transfected with a plasmid encoding ANP32A/b-c-myc. 24 h after transfection, cells were collected for lysates preparation in buffer containing 20 mM Tris-HCl pH 7.5, 100 mM NaCl, 0.5% NP40, 0.1 mM PMSF and cOmplete™. Cells were lysed by sonication and precleared by incubation with sepharose-A beads (GE Healthcare, GE17-5280-01) for 1 h at 4 °C. The lysates were then incubated with anti-c-myc (see Pull-down assays) over night at 4 °C and subsequently with sepharose-A beads (GE Healthcare, GE17-5280-01) for 1 h at room temperature with rotation. Following 6 washes with PBS, the samples were resuspended in SDS loading buffer and analyzed by western blotting.

In test [2] the target is T1, cytochrome c. Kind of test: ITC titration of full-length ANP32A or ANP32A1-167 with reduced Cc. It counts as binding. Conditions: low ionic strength (25 mM). As for the experimental part:
Isothermal titration calorimetry (ITC) experiments were performed using a Nano ITC Low Volume instrument (TA Instruments, USA). The reference cell was filled with distilled water. Titration experiments between reduced Cc and ANP32A or ANP32A1‐167 consisted of 17 injections of 2.91 µL of a 400 µM reduced Cc solution into the sample cell containing 50 µM ANP32A construct. Both Cc and ANP32A proteins were dialyzed against 10 mM sodium phosphate buffer pH 7.4. Assays performed at moderate ionic strength used the same experimental setup, but proteins were dialyzed against 20 mM sodium phosphate pH 7.4 with 50 mM NaCl. […] ANP32A, ANP32A230‐249 and ANP32B232‐251 titration data were analyzed using Origin 7.0 (OriginLab), employing a single‐ligand binding site model or a two‐ligand binding sites model. […] ANP32A1‐167 titration data was processed and analyzed using NanoAnalyze software (TA instruments).
ITC experiments were performed using a Nano ITC Low Volume instrument (TA Instruments, USA). […] ANP32A, ANP32A230-249 and ANP32B232-251 titration data was analyzed using Origin 7.0 (OriginLab), employing a single ligand binding site model or a two ligand binding sites model. […] ANP32A1-167 titration data were processed and analyzed using NanoAnalyze software (TA instruments).

The next test relates to 15N-labeled Cc. In words: NMR titration (1H-15N HSQC) of 15N Cc with ANP32A or ANP32A1-167. The format is binding. To be noted: low ionic strength; 25 °C. As for the experimental part: NMR titrations of 30 µM ^15N reduced Cc with ^14N ANP32A constructs were followed by 1D ^1H and 2D ^1H-^15N heteronuclear single quantum correlation (HSQC) spectra on a Bruker Avance-III 600 MHz equipped with a cryoprobe at 25 °C. ^15N-labelled reduced Cc (in 10 mM sodium phosphate buffer, pH 7.4) was titrated with increasing amounts of ^14N ANP32A dialyzed against the same buffer. Reduced ^15N Cc and ^14N ANP32A1-167 construct were titrated in 5 mM sodium phosphate buffer pH 6.4. To maintain the redox state of Cc and to adjust the lock signal on the NMR spectrometer, 0.1 mM of sodium ascorbate and 10% of D2O were added, respectively. Data were acquired and processed using TopSpin NMR 3.5pl7 software (Bruker).
Line broadening and chemical-shift perturbation analysis were performed using the Sparky 3 NMR assignment tool (T.D. Goddard and D.G. Kneller, University of California San Francisco, USA). Assignment of ANP32A230-249 and ANP32B232-251 peptides was performed using NMRFAM-SPARKY software distribution (National Magnetic Resonance Facility at Madison) and further imported to CCPNMR ^[1], whereby distance restraints were calculated using its built-in module.

T1 sequence (P99999 whole entry): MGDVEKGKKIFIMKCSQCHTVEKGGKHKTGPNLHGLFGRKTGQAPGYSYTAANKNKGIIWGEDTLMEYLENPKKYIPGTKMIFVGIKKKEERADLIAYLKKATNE

B1: ANP32B: acidic leucine‐rich nuclear phosphoprotein 32 B, histone chaperone, paralog of ANP32A (protein, UniProt Q92688 1-251, looked up)
Acidic leucine-rich nuclear …: MDMKRRIHLELRNRTPAAVRELVLDNCKSNDGKIEGLTAEFVNLEFLSLINVGLISVSNLPKLPKLKKLELSENRIFGGLDMLAEKLPNLTHLNLSGNKLKDISTLEPLKKLECLKSLDLFNCEVTNLNDYRESVFKLLPQLTYLDGYDREDQEAPDSDAEVDGVDEEEEDEEGEDEEDEDDEDGEEEEFDEEDDEDEDVEGDEDDDEVSEEEEEFGLDEEDEDEDEDEEEEEGGKGEKRKRETDDEGEDD
What is called Kd is the constant that tells how readily two partners part at equilibrium. Regarding B1, in the test with cytochrome c [1], the Kd is around 9.5 µM and the “–TΔS” value was 3.9 kcal/mol. For the same molecule, the “coimmunoprecipitation of histone H3, in words” value with histone H3 is on record as “H3 binds both ANP32 proteins in a similar manner”.

B2: ANP32A1‐167: ANP32A construct lacking its LCAR (protein)
chain: MEMGRRIHLELRNRTPSDVKELVLDNSRSNEGKLEGLTDEFEELEFLSTINVGLTSIANLPKLNKLKKLELSDNRVSGGLEVLAEKCPNLTHLNLSGNKIKDLSTIEPLKKLENLKSLDLFNCEVTNLNDYRENVFKLLPQLTYLDGYDRDDKEAPDSDAEGYVEGL
Consider B2, for which the “binding to Cc by ITC, in words” value with cytochrome c [2] is reported as “unable to interact with Cc even at low ionic strength”. In the test with 15N-labeled Cc, the “chemical-shift perturbations of Cc amide signals, in words” value is “no significant chemical‐shift perturbations”.
